Data: PMC7821693, “Revealing biophysical properties of KfrA-type proteins as a novel class of cytoskeletal, coiled-coil plasmid-encoded proteins”
Where “and” joins values, the source holds several entries; their conditions need not be identical. Identical values can stand only once.

Columns and labels:
[1] = target: His6-KfrA_(R751) (plasmid R751 (IncP-1β)); assay: cross-linking; glutaraldehyde at different concentrations, protein 0.1 mg/ml, 20 min at 25 °C, 0.05 M bicine-NaOH pH 8.5, 0.1 mM DTT, 0.4 M NaCl; products on SDS-PAGE
[2] = target: T1, KfrA R751 (His6-KfrAR751) (IncP-1beta plasmid R751, UniProt P71173 1-342); assay: EMSA; complex unstable, smear; two complexes; EMSA: 50 mM Tris-HCl pH 8.0, 10 mM MgCl2, 50 mM NaCl, 10 pmol DNA, 30 min at 37 C (legend: 25 C), 2.5% agarose in 0.5x TBE; TEM: 0.3 mg/ml protein, 50 mM sodium phosphate pH 7.5, 150 mM NaCl; conditions: protein: recombinant; chain copies: 2; blunt
T1 sequence: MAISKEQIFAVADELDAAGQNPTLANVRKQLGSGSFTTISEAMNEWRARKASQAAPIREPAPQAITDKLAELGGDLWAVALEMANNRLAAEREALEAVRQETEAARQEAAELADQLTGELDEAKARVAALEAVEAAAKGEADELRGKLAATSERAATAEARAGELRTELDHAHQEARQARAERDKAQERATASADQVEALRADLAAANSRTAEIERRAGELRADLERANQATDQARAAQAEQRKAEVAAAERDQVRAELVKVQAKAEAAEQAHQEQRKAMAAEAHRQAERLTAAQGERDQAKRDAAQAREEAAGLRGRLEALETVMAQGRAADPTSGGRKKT

KfrA RA3 (His6-KfrARA3) [3] = target: T2, KfrA RA3 (His6-KfrARA3) (IncU plasmid RA3, UniProt Q209P3 1-355); assay: EMSA; two complexes, some smear; EMSA: 50 mM Tris-HCl pH 8.0, 10 mM MgCl2, 50 mM NaCl, 10 pmol DNA, 30 min at 37 C (legend: 25 C), 2.5% agarose in 0.5x TBE; TEM: 0.3 mg/ml protein, 50 mM sodium phosphate pH 7.5, 150 mM NaCl; conditions: protein: recombinant; chain copies: 2; blunt
T2 sequence: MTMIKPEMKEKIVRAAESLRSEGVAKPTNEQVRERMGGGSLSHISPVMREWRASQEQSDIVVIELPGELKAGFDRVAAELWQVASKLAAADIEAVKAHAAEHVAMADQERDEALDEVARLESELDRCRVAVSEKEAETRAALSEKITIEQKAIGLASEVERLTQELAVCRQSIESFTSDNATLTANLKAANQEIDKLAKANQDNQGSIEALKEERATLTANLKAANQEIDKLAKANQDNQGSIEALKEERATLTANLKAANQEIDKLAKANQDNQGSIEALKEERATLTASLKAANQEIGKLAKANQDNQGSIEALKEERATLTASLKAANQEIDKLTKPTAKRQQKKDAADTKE

KfrA RA3 (His6-KfrARA3) [4] = target: T2, KfrA RA3 (His6-KfrARA3); assay: competition; unlabeled competitor vs labeled OKRA3; EMSA: 50 mM Tris-HCl pH 8.0, 10 mM MgCl2, 50 mM NaCl, 10 pmol DNA, 30 min at 37 C (legend: 25 C), 2.5% agarose in 0.5x TBE; TEM: 0.3 mg/ml protein, 50 mM sodium phosphate pH 7.5, 150 mM NaCl; conditions: protein: recombinant; chain copies: 2; blunt

His6-KfrA_(R751) (natural protein)
stoichiometry N [1]: 2 and 4

B1: OKR751 (#15/#16), 50 bp (dsDNA)
DNA 1: CTTGCGTAGTGTTGTATGTTGTAGTATGCTACACGCTACAACATACAACC
DNA 2: GGTTGTATGTTGTAGCGTGTAGCATACTACAACATACAACACTACGCAAG
binding result [2]: binds

B2: OKRA3 (#17/#18), 60 bp (dsDNA)
DNA 1: TCCGTTGTATTGTATGTATTGTATGTATTGTATTAAAATACAATACATACAATACAGGGA
DNA 2: TCCCTGTATTGTATGTATTGTATTTTAATACAATACATACAATACATACAATACAACGGA
binding result (KfrA RA3 (His6-KfrARA3) [3]): binds

B3: OG5/OD5 (#9/#10), specific competitor (dsDNA)
DNA 1: TATGTATTGTATGTATTGTATTAAAATACAATACATACAATACAGG
DNA 2: CCTGTATTGTATGTATTGTATTTTAATACAATACATACAATACATA
binding result (KfrA RA3 (His6-KfrARA3) [4]): binds
